# Results published in the supplement of paper PMC10724198.
# ± gives the standard deviation of the averaged measurements.
# Test system: Saccharomyces cerevisiae
# Assay: protein stability index of tFT-peptide fusion (C-terminal peptide) (PSI (0-1 scale)); higher = more stable (slower turnover)
# Conditions: genetic background: wild type; temperature: 30 C
# Protocol: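 Multiplexed protein stability (MPS) profiling in S. cerevisiae. Random 12-aa peptides (tFT-X12 library) are fused to the C-terminus of a sfGFP-mCherry tandem fluorescent timer, after mCherry and a GGGS linker. Cells are FACS-sorted into 8 mCherry/sfGFP bins and deep-sequenced. The protein stability index (PSI) is the read-weighted bin average, scaled from 0 (unstable) to 1 (stable). Only peptides with >10 reads are reported; cells were grown at 30 °C in SC-His with glucose.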
# 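Also: PSI is a weighted mean of sequencing reads over stability bins, variants kept only with over 10 reads, mCherry proximal and sfGFP distal, peptide attached via GGGS linker.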
row,Sequence,protein stability index
1,AAARTGIATLRT,0.691 ± 0.01
2,AAGCSSGQAQFG,0.727 ± 0.09
3,AAGPGRWRWRGA,0.643 ± 0.0093
4,AAGWLWVWGVEG,0.6429 ± 0.0017
5,AAHRRRRSPPRP,0.5909 ± 0.0014
6,AALHPLRISASV,0.646 ± 0.081
7,AALIHLSFYSPS,0.67 ± 0.02
8,AALTPSCPLHLP,0.713 ± 0.024
9,AAMKQAIKGPVK,0.696 ± 0.019
10,AAPRPYRPCYPN,0.664 ± 0.029
11,AAVLSYLKHLFV,0.627 ± 0.022
12,AAVSSDASVLRF,0.628 ± 0.027
13,ACGAWAVVGLLG,0.679 ± 0.042
14,ACGDRGGRCSEG,0.678 ± 0.089
15,ACPGGPFALRSH,0.666 ± 0.029
16,ACRVAVGRLFGS,0.717 ± 0.037
17,ACSHFLEEFCFF,0.75 ± 0.046
18,ACVSGSGLCLFV,0.694 ± 0.04
19,ADAKVGVIWVAL,0.628 ± 0.08
20,ADCRSRPMREGS,0.665 ± 0.036
21,ADMPPEFKPALS,0.637 ± 0.073
22,ADSGAHTISTVC,0.663 ± 0.01
23,ADWTATTDPTST,0.748 ± 0.019
24,AEAKRKSTYKRW,0.607 ± 0.026
25,AEERATKNGARQ,0.67 ± 0.055

row,Sequence,protein stability index
1,AEGKGRCRRSCW,0.693 ± 0.072
2,AERCVLEKSPRL,0.743 ± 0.064
3,AFDKDLLGMMFS,0.692 ± 0.024
4,AFDRVPLVFVST,0.564 ± 0.011
5,AFFLDKASQLES,0.694 ± 0.05
6,AGALGADRWGLK,0.741 ± 0.0085
7,AGAWLVDAAVGV,0.612 ± 0.017
8,AGAWVREVVGWG,0.707 ± 0.014
9,AGERQIRISING,0.691 ± 0.031
10,AGFGLRGWMIPP,0.68838 ± 0.00018
11,AGGGLGGVGDVV,0.681 ± 0.052
12,AGGRGNVGGVHV,0.679 ± 0.048
13,AGGSTGMGARSR,0.688 ± 0.015
14,AGGTRRRTGRRR,0.7019 ± 0.0024
15,AGHTTVTNPLPQ,0.738 ± 0.079
16,AGLACWGGVGER,0.693 ± 0.0079
17,AGLLLGGRVFGW,0.708 ± 0.067
18,AGLPEKARDRGS,0.638 ± 0.045
19,AGLRRLRDFGSN,0.726 ± 0.037
20,AGLSVRSILLSI,0.599 ± 0.039
21,AGPPPIFGHHTQ,0.765 ± 0.036
22,AGSRPCPGWPPG,0.691 ± 0.011
23,AGVECADRVLWG,0.774 ± 0.066
24,AGVGVSSSLLPL,0.664 ± 0.025
25,AGWGWGARQGAL,0.659 ± 0.037

row,Sequence,protein stability index
1,AGWPWAGRSCWG,0.728 ± 0.044
2,AHGRFTISLAGL,0.743 ± 0.057
3,AHSSPMGYLPPF,0.693 ± 0.11
4,AHYPGRAHLLCL,0.607 ± 0.02
5,AIIERVEQIVTA,0.522 ± 0.052
6,AISVCCFLCEFF,0.509 ± 0.023
7,AIVRFAPWPVPR,0.701 ± 0.043
8,AKKAEKQKKEKT,0.82 ± 0.019
9,AKLFSEGLQMHH,0.729 ± 0.049
10,AKNQSTGCKKKV,0.684 ± 0.043
11,AKQVVGASWIVA,0.607 ± 0.044
12,AKRRTNRLHCNA,0.6427 ± 0.0029
13,AKVRGGKGLRLV,0.6687 ± 0.003
14,ALAPSAFSSSPL,0.6645 ± 0.0022
15,ALAQSGNVVLDR,0.751 ± 0.1
16,ALASPAPLPRRD,0.7561 ± 0.0057
17,ALATPLWDLMPP,0.606 ± 0.072
18,ALCLDGCSLGEF,0.704 ± 0.017
19,ALEAAWGGLGGS,0.695 ± 0.013
20,ALFPRLVRPGFV,0.697 ± 0.036
21,ALGPPAPGPCRA,0.654 ± 0.021
22,ALGVGLDEILVM,0.556 ± 0.0093
23,ALLMDENTRVLF,0.649 ± 0.051
24,ALLPSAWPFRPP,0.611 ± 0.044
25,ALLTPPPLPPTV,0.61 ± 0.061

row,Sequence,protein stability index
1,ALPLSPRTHRCS,0.503 ± 0.097
2,ALRGWIRRRFPV,0.671 ± 0.03
3,ALRPLLGRDHKV,0.68 ± 0.042
4,ALRVAVIANMRV,0.5724 ± 0.0057
5,ALRVGTGTVRFE,0.712 ± 0.051
6,ALSCLVCLFGLL,0.545 ± 0.054
7,ALSDPDTVRLYA,0.7107 ± 0.0032
8,ALSPPPSLRLPF,0.7388 ± 0.0023
9,ALSVSLFKDGLF,0.672 ± 0.063
10,ALTFYYRGWSGL,0.619 ± 0.019
11,ALWALSTHHVRK,0.73866 ± 0.00051
12,ANSRVVSFRLSG,0.693 ± 0.047
13,APAPPPSPPLPS,0.68 ± 0.0081
14,APAPTLPALPPL,0.745 ± 0.026
15,APARPCPLLSTS,0.612 ± 0.034
16,APASSSAHTPFP,0.723 ± 0.019
17,APAVPITPPPFP,0.696 ± 0.05
18,APGPAAPGHGYL,0.744 ± 0.039
19,APKVICPHLIRL,0.68 ± 0.013
20,APLPPLYPPSPP,0.648 ± 0.065
21,APLPPPPDPPLP,0.695 ± 0.025
22,APLPPPRPPPSP,0.657 ± 0.081
23,APPLPTHYCPHL,0.841 ± 0.23
24,APPPAPPPPPQT,0.662 ± 0.0089
25,APPPFRAPPGFR,0.845 ± 0.093

row,Sequence,protein stability index
1,APPPPPIPAPPP,0.714 ± 0.038
2,APPPPPVPLPPP,0.722 ± 0.024
3,APPPPRAPTPPP,0.696 ± 0.011
4,APPPSPLPLPSL,0.689 ± 0.08
5,APPPSPSPPPPL,0.712 ± 0.039
6,APPRLTTLSMNL,0.696 ± 0.0073
7,APPRPPTLHRPH,0.721 ± 0.0085
8,APPTSPLPIPSP,0.698 ± 0.017
9,APRHSSLHPAPS,0.6986 ± 0.0029
10,APRPPSLSPSPP,0.681 ± 0.0076
11,APRPSPRPTPPS,0.662 ± 0.078
12,APRRAPSRRIRL,0.748 ± 0.016
13,APSDRRRTPTPT,0.69 ± 0.013
14,APSLPPVVQPLI,0.663 ± 0.023
15,APSPLHFPPPPT,0.67 ± 0.0048
16,APSPPSSPSAPP,0.643 ± 0.052
17,APSVSKNSEVRK,0.681 ± 0.019
18,APTPPPPSPLAP,0.73 ± 0.051
19,AQDECVMVWYVG,0.651 ± 0.013
20,AQDSFGFPPPPS,0.726 ± 0.018
21,AQPIPTLYRAPP,0.729 ± 0.049
22,AQRNSPIVLAVL,0.527 ± 0.0063
23,ARAGQGEWGGGV,0.701 ± 0.033
24,ARALCYSFPPAL,0.77 ± 0.1
25,ARGALPHHVSCV,0.691 ± 0.11

row,Sequence,protein stability index
1,ARGKYKKLKIKE,0.733 ± 0.018
2,ARIQECLTKASK,0.607 ± 0.095
3,ARLCLVRTKRHS,0.684 ± 0.044
4,ARLGNPHFKIFS,0.684 ± 0.089
5,ARLPCVVFLLDE,0.666 ± 0.036
6,ARPASGCFCLFR,0.655 ± 0.071
7,ARRPGGGRSGGN,0.672 ± 0.039
8,ARSSILRCRGYR,0.747 ± 0.095
9,ASAPPHVSAPSP,0.654 ± 0.012
10,ASGASEVGACAG,0.685 ± 0.033
11,ASGGIIRWGLWM,0.694 ± 0.029
12,ASGIYSRFSTSS,0.624 ± 0.052
13,ASLPPLSPPSSL,0.71 ± 0.045
14,ASMRIVWWFGML,0.495 ± 0.047
15,ASPAWYARGISR,0.733 ± 0.033
16,ASPLFFHPSAPH,0.6891 ± 0.0046
17,ASPLSIPPLSPS,0.633 ± 0.073
18,ASPPAYCPPPPP,0.666 ± 0.039
19,ASPPPPRISAWL,0.7159 ± 0.0036
20,ASPSYLFFLLPC,0.5788 ± 0.0018
21,ASQSFSFITFTY,0.645 ± 0.056
